The labels stand for the following.
B1: HDV Ribozyme (parent)
chain: GGCCGGCAUGGUCCCAGCCUCCUCGCUGGCGCCGGCUGGGCAACAUUCCGAGGGGACCGUCCCCUCGGUAAUGGCGAAUGGGACCCA

This data set covers variants of B1. The data set can be described thus: self-cleavage, relative activity (ratio to wild type); higher = more cleavage; co-transcriptional.
As to GGCCGGCAUGGUCCCAGCCUCCUCGCUGGCGCCGGCUAGGCAACAUUCCGAGGGGACCGUCCCCUCGCUAAUGGCGAAUGGGACCCA [G38A G68C], the self-cleavage stood at 0.197. GGCCGGCAUGGUCCCAGCCUCCUCGCUGGCGCCGGCUGGGCAACAUACCGAGGGGACCGUCCCCUCGGUAAUGGCGAGUGGGACCCA [U47A A78G]: the self-cleavage came to 0.831. GGCCGGCAUGGUCCCAGUCUCCUCGCUGGCGCCGGCUGGGCAACAUUCCGAGGGGACCGUCCCCUCGGUAAUGGCGAAUGCGACCCA [C18U G81C]: the self-cleavage amounted to 0.136. As to GGCCGGCAUGGUCCCAGCCUCCUCGCUGGCGCCGGCUGGGCAACAUUCCAAGGGGACCGUCCCCUCGGUAAUGCCGAAUGGGACCCA [G50A G74C], the self-cleavage is 0.242. To GGCCGGCCUGGUGCCAGCCUCCUCGCUGGCGCCGGCUGGGCAACAUUCCGAGGGGACCGUCCCCUCGGUAAUGGCGAAUGGGACCCA [A8C C13G] belongs 0.0692. To GGCCGGCAUGGUCCCAGCCUCGUCGCUAGCGCCGGCUGGGCAACAUUCCGAGGGGACCGUCCCCUCGGUAAUGGCGAAUGGGACCCA [C22G G28A] belongs 0.0462.

For the variant GGCCGGCAUGGUCCCAGCCUCCUCGCUGGCGCCGGCUGGGCAACAUUCCGAGGGGACCGUCCCCUCGGUGGUGGCGAAUGGGACCCA [A70G A71G], the self-cleavage worked out at 0.918. For the variant GGCCGGCAUGGUCCCAGCCUCCUCGCUGGCGCCGGCUGGGCAACAUUUCGAGGGGACCGUCCCCUCGGUAAUGGCAAAUGGGACCCA [C48U G76A], the self-cleavage was 1.08. With GGCCGGCAUGGUCCCAGCCUCCUCGCUGGCGCCGGCUGGCCAACAUUCCGAGGGGACCGUCCCCUAGGUAAUGGCGAAUGGGACCCA [G40C C66A], the self-cleavage stood at 0.282. UGCCGGCAUGGUCCGAGCCUCCUCGCUGGCGCCGGCUGGGCAACAUUCCGAGGGGACCGUCCCCUCGGUAAUGGCGAAUGGGACCCA [G1U C15G]: the self-cleavage worked out at 0.0852.

On to UGCCGGCAUGGUCCAAGCCUCCUCGCUGGCGCCGGCUGGGCAACAUUCCGAGGGGACCGUCCCCUCGGUAAUGGCGAAUGGGACCCA [G1U C15A], for which the self-cleavage came out at 0.302. Turning to GGCCGGCAUGGUCCCAGCCUCCUCGCUGGCGCCGGCUGGGCAACAUUCCGAGGGGACCGUCCCCACGGUAAUGGCGAAUGGGUCCCA [U65A A83U], the self-cleavage stood at 0.539. In the case of GGCCGGCAUGGUCCCAGCCUCCUCGAUGGCGCCGGCUGGGCAACAUUCCGAGGGGACAGUCCCCUCGGUAAUGGCGAAUGGGACCCA [C26A C58A], the self-cleavage came to 1.24. In the case of GGCCGGCAUGGUCCCAGCCUCCUCGGUGGCGCCGGCUGGGCAACCUUCCGAGGGGACCGUCCCCUCGGUAAUGGCGAAUGGGACCCA [C26G A45C], the self-cleavage amounted to 0.364. GGCCGGCAUGGUCCCAGCCUCCUCGCUGGCGCCGGCUGGGCAACAUUCCGAGGGGACCGUCGCCUCGGUAAUGGCGGAUGGGACCCA [C62G A77G]: the self-cleavage came out at 0.745. In the case of GGCCGGCAUGGUCCCAGCCUCCUCGCUGACGCCUGCUGGGCAACAUUCCGAGGGGACCGUCCCCUCGGUAAUGGCGAAUGGGACCCA [G29A G34U] it was 0.0601; in that of GGCCGGCAUGGUCCCAGCCUCCUCGCUGGCGCCGGCUGGGCCACAUCCCGAGGGGACCGUCCCCUCGGUAAUGGCGAAUGGGACCCA [A42C U47C], 0.0791.

As to GCCCGCCAUGGUCCCAGCCUCCUCGCUGGCGCCGGCUGGGCAACAUUCCGAGGGGACCGUCCCCUCGGUAAUGGCGAAUGGGACCCA [G2C G6C], the self-cleavage stood at 0.0386. GGCCGGCAUGGUCCCAGCCUCCGCGCUGGCGCCGGCUGGGCAACAUUCCGAGGGGACCGUCCCCUCGGCAAUGGCGAAUGGGACCCA [U23G U69C]: the self-cleavage was 0.598. For the variant GGCCGUCAUGGUCCCAGCCUCCUCGCUGGCGCCGGCUGGGCAACAUUCUGAGGGGACCGUCCCCUCGGUAAUGGCGAAUGGGACCCA [G6U C49U], the self-cleavage came to 0.485. GGCCGGCAUCGUCCCAGCCUCCUCGCUGGCGCCGGCUGGGCAACAUUCCGAGGGGACCGUCCCCUCGGUAAUGGCCAAUGGGACCCA [G10C G76C]: the self-cleavage stood at 0.861. As to GGCCGGAAUGGUCCCAGCCUCCUCGCUGGCGUCGGCUGGGCAACAUUCCGAGGGGACCGUCCCCUCGGUAAUGGCGAAUGGGACCCA [C7A C32U], the self-cleavage stood at 0.227.

In the case of GGCCGGCAUGGUACCAGCCUCCUUGCUGGCGCCGGCUGGGCAACAUUCCGAGGGGACCGUCCCCUCGGUAAUGGCGAAUGGGACCCA [C13A C24U], the self-cleavage came to 0.145. Regarding GGCAGGCAUGGUCCCAGCCUCCUCGCUGGCGCCGGCUGUGCAACAUUCCGAGGGGACCGUCCCCUCGGUAAUGGCGAAUGGGACCCA [C4A G39U], the self-cleavage is 0.14. In the case of GGCCGGCAUGGUCCCAGCCUCCUCGCCGGCGCCGGCUGGGCAACAUUUCGAGGGGACCGUCCCCUCGGUAAUGGCGAAUGGGACCCA [U27C C48U], the self-cleavage was determined as 0.604. For GGCCGGCAUGGUCCCAGCCUCCUCGCUGGCGCCGGCUGGGCAACAUUCCGAGGGGACCGUCCCCUCGGGAAAGGCGAAUGGGACCCA [U69G U72A], the self-cleavage was determined as 0.369.

As for GGCCGGCAUGGUCCCAGCCUCCUCGCUGGCGCCGGCUGGGCAACAUUCCGAGGGGACCGUCCCCUCGGUAAUGGCGAAUGGGACCGU [C86G A87U], the self-cleavage came to 0.965. For GGCCGGCAUGGUCCCAGCCUCCUCGCUGGCGCCGGCUGGGCAACAUGGCGAGGGGACCGUCCCCUCGGUAAUGGCGAAUGGGACCCA [U47G C48G], the self-cleavage stood at 0.635. Regarding GGCCGGCAUGGUCCCAGCCCCCUCGCUGGCCCCGGCUGGGCAACAUUCCGAGGGGACCGUCCCCUCGGUAAUGGCGAAUGGGACCCA [U20C G31C], the self-cleavage is 0.0594.

Consider GGCCGGCAUGGUCCCGGCCUCCUCGCUGGCGCCGGCUGGGCAACCUUCCGAGGGGACCGUCCCCUCGGUAAUGGCGAAUGGGACCCA [A16G A45C], for which the self-cleavage turned out to be 0.506. For the variant GGCCGGCAUGGUCCCAGCCUCCUCGCUGGCGACGGCUGGGCAACAUUCCGAGGGGACCGUCCCCUUGGUAAUGGCGAAUGGGACCCA [C32A C66U], the self-cleavage came to 0.315.

As for GGCCGGCAUGGUCCCAGCCUCCUCGCUGGCGCCGGCUGGGCCACAUUCCGAGGGGACCGUCCCCUCGGUAAUGGCGAAUGGGACCUA [A42C C86U], the self-cleavage is 0.178.

(Values after the RNAGym collection of RNA variant scans (doi:10.7554/elife.80360).)
